This experiment concerns fibrinolysis system of the blood. Put plainly: complex permittivity at 10 MHz of blood samples with fibrinolysis system promotor (tPA) and inhibitor (aprotinin). As to conditions: blood sample of tPA=8 and aprotinin=0, FIG. 9. The protocol:
In addition, for example, in the case where the fibrinolysis system is evaluated, examples of coagulation factors to be evaluated include plasminogen and plasmin. In that case, as a drug to be added to the blood sample, an activator or inhibitor of plasminogen or plasmin is usable. FIG. 9 is a diagram showing time-dependent changes in the real part (∈′) of the complex permittivity at 10 MHz of blood samples having different fibrinolysis system promotor (tPA) and fibrinolysis system inhibitor (aprotinin) concentrations.
For the evaluation of the fibrinolysis-system blood, for example, a value obtained by dividing the amplitude after 30 minutes from the time B shown in FIGS. 2A-2B by the amplitude at the time B (LI30: the source of clot firmness after a predetermined period of time from the maximum firmness accompanying fibrinolysis) can be used as an evaluation parameter.

The values below come from patent US20170030891A1, “BLOOD CONDITION ANALYSIS DEVICE, BLOOD CONDITION ANALYSIS SYSTEM, BLOOD CONDITION ANALYSIS METHOD, AND PROGRAM” (SONY CORPORATION, priority 2014, published 2017).

B1: tPA: fibrinolysis system promotor (protein, UniProt P00750 36-562, looked up)
Tissue-type plasminogen …: SYQVICRDEKTQMIYQQHQSWLRPVLRSNRVEYCWCNSGRAQCHSVPVKSCSEPRCFNGGTCQQALYFSDFVCQCPEGFAGKCCEIDTRATCYEDQGISYRGTWSTAESGAECTNWNSSALAQKPYSGRRPDAIRLGLGNHNYCRNPDRDSKPWCYVFKAGKYSSEFCSTPACSEGNSDCYFGNGSAYRGTHSLTESGASCLPWNSMILIGKVYTAQNPSAQALGLGKHNYCRNPDGDAKPWCHVLKNRRLTWEYCDVPSCSTCGLRQYSQPQFRIKGGLFADIASHPWQAAIFAKHRRSPGERFLCGGILISSCWILSAAHCFQERFPPHHLTVILGRTYRVVPGEEEQKFEVEKYIVHKEFDDDTYDNDIALLQLKSDSSRCAQESSVVRTVCLPPADLQLPDWTECELSGYGKHEALSPFYSERLKEAHVRLYPSSRCTSQHLLNRTVTDNMLCAGDTRSGGPQANLHDACQGDSGGPLVCLNDGRMTLVGIISWGLGCGQKDVPGVYTKVTNYLDWIRDNMRP
As for B1, the “characteristics of time-dependent change of ∈′ at 10 MHz” value was “exhibits similar characteristics to the blood of a patient with the fibrinolysis system promoted”.
